Reference: paper doi:10.1101/2020.02.26.966614

Target: MICAL1-oxidized actin filaments (alpha-skeletal actin, rabbit) (rabbit) (UniProt P68135)
Assay: single-filament microfluidics with fluorescence microscopy

growth rate of single cofilin-1 domains, normalized by the cofilin concentration: 10 sub/s/µM
Substance: eGFP-S3D-cofilin-1 (from UniProt P18760 1-166) (natural protein)
